In IntAct's records for PubMed 21960005:

B1: Ran-binding protein 3 (Homo sapiens), Q9H6Z4 (parent)
chain: MADLANEEKPAIAPPVFVFQKDKGQKSPAEQKNLSDSGEEPRGEAEAPHHGTGHPESAGEHALEPPAPAGASASTPPPPAPEAQLPPFPRELAGRSAGGSSPEGGEDSDREDGNYCPPVKRERTSSLTQFPPSQSEERSSGFRLKPPTLIHGQAPSAGLPSQKPKEQQRSVLRPAVLQAPQPKALSQTVPSSGTNGVSLPADCTGAVPAASPDTAAWRSPSEAADEVCALEEKEPQKNESSNASEEEACEKKDPATQQAFVFGQNLRDRVKLINESVDEADMENAGHPSADTPTATNYFLQYISSSLENSTNSADASSNKFVFGQNMSERVLSPPKLNEVSSDANRENAAAESGSESSSQEATPEKESLAESAAAYTKATARKCLLEKVEVITGEEAESNVLQMQCKLFVFDKTSQSWVERGRGLLRLNDMASTDDGTLQSRLVMRTQGSLRLILNTKLWAQMQIDKASEKSIRITAMDTEDQGVKVFLISASSKDTGQLYAALHHRILALRSRVEQEQEAKMPAPEPGAAPSNEEDDSDDDDVLAPSGATAAGAGDEGDGQTTGST
partner: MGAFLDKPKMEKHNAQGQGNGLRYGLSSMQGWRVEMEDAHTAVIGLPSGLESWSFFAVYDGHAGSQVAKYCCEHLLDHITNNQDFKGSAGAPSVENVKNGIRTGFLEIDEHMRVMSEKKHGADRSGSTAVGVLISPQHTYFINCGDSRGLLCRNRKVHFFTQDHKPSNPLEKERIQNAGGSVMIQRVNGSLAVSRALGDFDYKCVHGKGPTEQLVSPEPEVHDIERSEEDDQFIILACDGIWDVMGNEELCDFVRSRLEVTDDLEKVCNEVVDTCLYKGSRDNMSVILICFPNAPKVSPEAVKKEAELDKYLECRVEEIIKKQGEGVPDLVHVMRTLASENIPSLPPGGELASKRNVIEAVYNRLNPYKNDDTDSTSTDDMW
B2: Ran-binding protein 3 (Homo sapiens), Q9H6Z4 (parent)
chain: B1 chain

Variants of: B1
Conditions: with ppm1a_human PPM1A

| effect of a mutation on the interaction | Variant |
| --- | --- |
| increasing interaction | S57D |

Variants of: B1
Conditions: with ppm1a_human PPM1A
Remark: another data set of the same source

| effect of a mutation on the interaction | Variant |
| --- | --- |
| decreasing interaction | S57A |

Variants of: B2
Conditions: with smad2_human SMAD2, Q15796
Sequence of smad2_human SMAD2, Q15796 (Q15796 whole entry): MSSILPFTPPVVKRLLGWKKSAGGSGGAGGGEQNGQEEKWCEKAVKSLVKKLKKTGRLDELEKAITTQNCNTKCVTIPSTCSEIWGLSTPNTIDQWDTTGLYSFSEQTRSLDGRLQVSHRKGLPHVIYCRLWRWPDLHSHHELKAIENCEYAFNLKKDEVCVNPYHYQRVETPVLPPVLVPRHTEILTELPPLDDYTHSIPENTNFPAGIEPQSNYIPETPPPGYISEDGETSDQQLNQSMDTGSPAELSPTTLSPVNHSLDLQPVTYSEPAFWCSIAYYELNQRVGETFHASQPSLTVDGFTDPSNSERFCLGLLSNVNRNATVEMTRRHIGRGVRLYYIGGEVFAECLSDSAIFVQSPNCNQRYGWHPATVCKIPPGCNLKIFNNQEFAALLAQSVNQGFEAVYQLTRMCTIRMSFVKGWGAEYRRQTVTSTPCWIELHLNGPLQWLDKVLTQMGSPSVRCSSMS

| effect of a mutation on the interaction | Variant |
| --- | --- |
| decreasing interaction | S57D |
